# Patent EP4431526A1 (Emfret Analytics GmbH & Co. KG, dated 2024)
# Numbering of substitutions follows the chain as printed. Ends that are not written are not given here.
# T1: human GPVI-Fc fusion protein (human, UniProt Q9HCN6 21-267, limits assumed)
# T1 construct: also called human GPVI protein antigen
# T1 sequence (looked up): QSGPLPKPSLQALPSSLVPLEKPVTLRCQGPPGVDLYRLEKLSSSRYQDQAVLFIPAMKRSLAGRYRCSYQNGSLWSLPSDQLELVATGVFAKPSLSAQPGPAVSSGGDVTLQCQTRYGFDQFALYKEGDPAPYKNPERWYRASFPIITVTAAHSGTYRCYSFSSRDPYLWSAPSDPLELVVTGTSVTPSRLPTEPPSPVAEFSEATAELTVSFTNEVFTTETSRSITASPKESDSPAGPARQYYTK
# T2: GPVI peptide 201V-E215 (human, not fully specified)
# T2 construct: On the array as peptide-cellulose conjugate; as soluble (cleavable, Fmoc-rink-amide linker) peptide in the neutralisation; also called Val201 to Glu215
# T2 peptide: VVTGTSVTPSRLPTE
# T3: GPVI peptide 246S-P260 (human, not fully specified)
# T3 construct: On the array as peptide-cellulose conjugate; as soluble (cleavable, Fmoc-rink-amide linker) peptide in the neutralisation; also called Ser246 to Pro260
# T3 peptide: SITASPKESDSPAGP
# B1: HC3 LC4 humanized Fab (Fab, V domains shown)
# VH: QVQLVESGGGVVQPGRSLRLSCVASGFSLTSYGVTWVRQAPGKGLEWVAVIWGDGSTNYHSGLRSRFTISRDNSKNTMFLQMNSLRADDTAVYYCAKPIYYDFDDDAMDYWGQGTLVTVSS
# VL: DIVMTQSPATLSLSPGDRATLSCKASQNVGTYVAWYQQKPGQAPRLLIYSASYRCSGIPARFSGSGSGTDFTLTISSLQSEDFAVYYCHQYNNYPLTFGGGTKVEIKR
# notes: also called VH3:VL4
# B2: HC4 LC4 humanized Fab (Fab, V domains shown)
# VH: B1 VH with V23A, A40S, F67L, M78L, F79Y, Q81E, A87T, D88E, V92T, L116K
# VL: B1 VL
# notes: also called VH4:VL4
# B3: HC0 LC0 chimeric Fab fragment (Fab, V domains shown)
# VH: QVQLKESGPGLVQPSQSLSITCTVSGFSLTSYGVTWVRQPPGKGLEWLGVIWGDGSTNYHSGLRSRLSISRDDSKSQVFLKLNSLQTDDTATYYCAKPIYYDFDDDAMDYWGQGTSVTVSS
# VL: DIVMTQSQKFMSTSVGDRVSVTCKASQNVGTYVAWFQQKPGQSPKTLIYSASYRCSGVPDRFTGSGSGTDFTLTISNVQSDDLAEYFCHQYNNYPLTFGAGTKLELRR
# notes: Murine variable domains with human Ig constant domains, expressed in CHO; also called HC0 LCD; chimeric control antibody
# B4: HC5 LC1 humanized Fab (Fab, V domains shown)
# VH: QVQLQESGPGLVKPSETLSLTCTVSGFSLTSYGVTWIRQPPGKGLEWIGVIWGDGSTNYHSGLRSRVTISVDTSKNQFSLKLSSVTAADTAVYYCAKPIYYDFDDDAMDYWGQGTSVTVSS
# VL: EIVLTQSPSSLSASVGDRVTITCKASQNVGTYVAWFQQKPGKAPKSLIYSASYRCSGVPSKFSGSGSGTDFTLTISSLQPEDFATYYCHQYNNYPLTFGQGTKLEIKR
# notes: also called VH5:VL1
# B5: HC5 LC4 humanized Fab (Fab, V domains shown)
# VH: B4 VH
# VL: B1 VL
# notes: also called VH5:VL4
# B6: HC2 LC3 humanized Fab (Fab, V domains shown)
# VH: B4 VH with Q1E, Q5V, S116L
# VL: B4 VL with E1D, V3Q, S10T, F36Y, S46L, K61R, D70E, E81D, A84T, L104V
# notes: also called VH2:VL3
# B7: HC3 LC1 humanized Fab (Fab, V domains shown)
# VH: B1 VH
# VL: B4 VL
# notes: also called VH3:VL1
# B8: HC4 LC2 humanized Fab (Fab, V domains shown)
# VH: B1 VH with V23A, A40S, F67L, M78L, F79Y, Q81E, A87T, D88E, V92T, L116K
# VL: B4 VL with E1D, V3Q, L4M, K39R, S76N, L104V
# notes: also called VH4:VL2
# B9: HC1 LC3 humanized Fab (Fab, V domains shown)
# VH: B4 VH with V24A, N76S, S116L
# VL: B4 VL with E1D, V3Q, S10T, F36Y, S46L, K61R, D70E, E81D, A84T, L104V
# notes: also called VH1:VL3
# B10: HC4 LC3 humanized Fab (Fab, V domains shown)
# VH: B1 VH with V23A, A40S, F67L, M78L, F79Y, Q81E, A87T, D88E, V92T, L116K
# VL: B4 VL with E1D, V3Q, S10T, F36Y, S46L, K61R, D70E, E81D, A84T, L104V
# notes: also called VH4:VL3
# B11: HC5 LC3 humanized Fab (Fab, V domains shown)
# VH: B4 VH
# VL: B4 VL with E1D, V3Q, S10T, F36Y, S46L, K61R, D70E, E81D, A84T, L104V
# notes: also called VH5:VL3
# B12: HC4 LC1 humanized Fab (Fab, V domains shown)
# VH: B1 VH with V23A, A40S, F67L, M78L, F79Y, Q81E, A87T, D88E, V92T, L116K
# VL: B4 VL
# notes: also called VH4:VL1
# B13: HC3 LC2 humanized Fab (Fab, V domains shown)
# VH: B1 VH
# VL: B4 VL with E1D, V3Q, L4M, K39R, S76N, L104V
# notes: also called VH3:VL2
# B14: HC2 LC1 humanized Fab (Fab, V domains shown)
# VH: B4 VH with Q1E, Q5V, S116L
# VL: B4 VL
# notes: also called VH2:VL1
# B15: HC5 LC2 humanized Fab (Fab, V domains shown)
# VH: B4 VH
# VL: B4 VL with E1D, V3Q, L4M, K39R, S76N, L104V
# notes: also called VH5:VL2
# B16: HC2 LC2 humanized Fab (Fab, V domains shown)
# VH: B4 VH with Q1E, Q5V, S116L
# VL: B4 VL with E1D, V3Q, L4M, K39R, S76N, L104V
# notes: also called VH2:VL2; EMF602
# B17: HC1 LC1 humanized Fab (Fab, V domains shown)
# VH: B4 VH with V24A, N76S, S116L
# VL: B4 VL
# notes: Monovalent 50 kDa Fab from CHO; also called VH1:VL1
# B18: HC3 LC3 humanized Fab (Fab, V domains shown)
# VH: B1 VH
# VL: B4 VL with E1D, V3Q, S10T, F36Y, S46L, K61R, D70E, E81D, A84T, L104V
# notes: also called VH3:VL3
# B19: HC1 LC4 humanized Fab (Fab, V domains shown)
# VH: B4 VH with V24A, N76S, S116L
# VL: B1 VL
# notes: also called VH1:VL4
# B20: HC2 LC4 humanized Fab (Fab, V domains shown)
# VH: B4 VH with Q1E, Q5V, S116L
# VL: B1 VL
# notes: also called VH2:VL4
# B21: Emf6.1 IgG (mouse IgG2a kappa) (antibody, V domains shown)
# VH: B3 VH
# VL: DIVMTQSQKFMSTSVGDRVSVTCKASQNVGTYVAWFQQKPGQSPKTLIYSASYRCSGVPDRFTGSGSGTDFTLTISNVQSDDLAEYFCHQYNNYPLTFGAGTKLELR
# notes: Mouse monoclonal IgG2a kappa from hybridoma (subclone of Emf6)
# Target: T1, human GPVI-Fc fusion protein
# Assay: BLI (Octet), GPVI-Fc on biosensor, 1:1 fit
Binder,Kd [nM],koff [s⁻¹],kon [M⁻¹ s⁻¹]
B1,0.431,0.000618,1.43e+06
B2,0.572,0.000412,720000
B3,0.427,0.000212,496000
B4,0.333,0.000261,782000
B5,0.554,0.000319,576000
B6,0.25,0.000144,576000
B7,0.353,0.000587,1.66e+06
B8,0.395,0.000508,1.29e+06
B9,0.284,0.000221,777000
B10,0.593,0.000655,1.1e+06
B11,0.637,0.000437,686000
B12,0.425,0.000339,797000
B13,0.215,0.000362,1.68e+06
B14,0.269,0.000189,703000
B15,0.367,0.00024,655000
B16,0.175,0.000162,931000
B17,0.413,0.000332,804000
B18,0.299,0.000561,1.87e+06
B19,0.496,0.000333,671000
B20,0.693,0.0011,1.59e+06

# Target: T2, GPVI peptide 201V-E215
# Assay: peptide microarray, HRP anti-mouse IgG
row,Binder,binding result
1,B21,binds

# Target: T3, GPVI peptide 246S-P260
# Assay: peptide microarray, HRP anti-mouse IgG
row,Binder,binding result
1,B21,binds
